Blank lines part the entries; values can stand above or below the binder they belong to.
How the values were obtained:
[1] = biological target: T1, FLAG tagged B3GNT2 (N- or C-terminal FLAG tag) (human, UniProt Q9NY97 1-397); test: co-IP of FLAG tagged B3GNT2 from A375 lysate, Western blot
T1 construct: The text speaks of the co-IP of B3GNT2 without separating the N-FLAG and C-FLAG constructs, so both are held as one molecule; also called N-FLAG B3GNT2; C-FLAG B3GNT2; not shown: FLAG tag at the N- or the C-terminus
T1 sequence (looked up): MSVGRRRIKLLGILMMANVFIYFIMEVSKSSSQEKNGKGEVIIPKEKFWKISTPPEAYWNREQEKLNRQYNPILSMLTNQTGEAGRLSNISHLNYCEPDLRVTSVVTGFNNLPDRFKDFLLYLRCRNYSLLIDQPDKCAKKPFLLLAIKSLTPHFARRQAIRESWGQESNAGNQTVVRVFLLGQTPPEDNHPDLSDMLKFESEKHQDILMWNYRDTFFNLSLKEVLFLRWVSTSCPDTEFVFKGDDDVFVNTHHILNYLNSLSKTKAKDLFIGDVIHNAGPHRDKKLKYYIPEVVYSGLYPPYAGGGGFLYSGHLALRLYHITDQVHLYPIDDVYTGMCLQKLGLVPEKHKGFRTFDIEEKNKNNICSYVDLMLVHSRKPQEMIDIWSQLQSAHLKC
Experimental: (§1) Cells were plated in 10-cm cell culture dishes and grown to 60-80% confluency. For each condition, two biological replicates were harvested for co-IP. Cells were washed with PBS and 4 mL of lysis buffer (20 mM HEPES, 1% Triton X-100, 150 mM NaCl, 1 mM EDTA, and 10% glycerol) containing protease inhibitor cocktail was added. Cells were scraped and lysate was incubated at 4° C. under rotary agitation for 1 h. Lysate was centrifuged at 14,000×g for 10 min at 4° C. Supernatant was transferred to a new tube and an aliquot was taken as the input. […] For Western blots, 10 μg/mL Chicken Anti-FLAG (Aves labs ET-DY100) and IgY control (R&D Systems AB-101-C) antibodies were biotinylated (Thermo Fisher Scientific 90407) and added to the respective conditions. Lysates with antibodies were incubated at 4° C. under rotary agitation overnight. For each mL of lysate, 50 μL of Pierce Protein A/G Magnetic Beads (Mass spectrometry; Thermo Fisher Scientific 88803) or Pierce Streptavidin Magnetic Beads (Western blot; Thermo Fisher Scientific 88817) was washed twice with lysis buffer. Lysates with antibodies were added to the beads and incubated at 4° C. under rotary agitation for 4 h. Beads were washed with lysis buffer 3 times and resuspended in lysis buffer for storage.

[2] = biological target: T2, KHDRBS1 (human, UniProt Q07666 1-443); test: co-IP with mouse anti-FLAG from lysate of cells overexpressing C-FLAG B3GNT2, then mass spectrometry
T2 construct: Identified by mass spectrometry in the co-IP; also called NP_006550.1
T2 sequence (Q07666 whole entry): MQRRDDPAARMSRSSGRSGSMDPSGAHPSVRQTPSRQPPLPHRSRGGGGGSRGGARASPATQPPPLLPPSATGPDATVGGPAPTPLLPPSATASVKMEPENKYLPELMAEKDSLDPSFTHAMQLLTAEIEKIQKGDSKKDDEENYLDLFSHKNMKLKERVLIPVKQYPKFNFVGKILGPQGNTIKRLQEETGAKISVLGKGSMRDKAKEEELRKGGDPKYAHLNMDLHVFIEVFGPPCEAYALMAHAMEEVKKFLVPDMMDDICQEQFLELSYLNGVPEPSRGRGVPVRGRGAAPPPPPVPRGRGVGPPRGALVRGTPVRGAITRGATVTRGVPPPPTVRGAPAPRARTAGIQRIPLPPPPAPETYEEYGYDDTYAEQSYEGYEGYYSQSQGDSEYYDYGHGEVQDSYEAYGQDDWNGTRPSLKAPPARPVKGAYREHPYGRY
Experimental: as §1
(§2) Magnetic beads were resuspended in 100 mM Tris pH 7.8, reduced, alkylated and digested with trypsin at 37° ° C. overnight. This solution was subjected to solid phase extraction to concentrate the peptides and remove unwanted reagents followed by injection onto a Shimadzu HPLC with fraction collector. Eight fractions were collected and after concentration were injected on a Waters NanoAcquity HPLC equipped with a self-packed Aeris 3 μm C18 analytical column 0.075 mm by 20 cm, (Phenomenex). Peptides were eluted using standard reverse-phase gradients. The effluent from the column was analyzed using a Thermo Orbitrap Elite mass spectrometer (nanospray configuration) operated in a data dependent manner for 54 minutes. The resulting fragmentation spectra were correlated against the known database using Proteome Discover 1.4 (Thermo Fisher Scientific).

[3] = biological target: T3, CASC3 (human, UniProt O15234 1-703); test: as above
T3 construct: Identified by mass spectrometry in the co-IP; also called NP_031385.2
T3 sequence (O15234 whole entry): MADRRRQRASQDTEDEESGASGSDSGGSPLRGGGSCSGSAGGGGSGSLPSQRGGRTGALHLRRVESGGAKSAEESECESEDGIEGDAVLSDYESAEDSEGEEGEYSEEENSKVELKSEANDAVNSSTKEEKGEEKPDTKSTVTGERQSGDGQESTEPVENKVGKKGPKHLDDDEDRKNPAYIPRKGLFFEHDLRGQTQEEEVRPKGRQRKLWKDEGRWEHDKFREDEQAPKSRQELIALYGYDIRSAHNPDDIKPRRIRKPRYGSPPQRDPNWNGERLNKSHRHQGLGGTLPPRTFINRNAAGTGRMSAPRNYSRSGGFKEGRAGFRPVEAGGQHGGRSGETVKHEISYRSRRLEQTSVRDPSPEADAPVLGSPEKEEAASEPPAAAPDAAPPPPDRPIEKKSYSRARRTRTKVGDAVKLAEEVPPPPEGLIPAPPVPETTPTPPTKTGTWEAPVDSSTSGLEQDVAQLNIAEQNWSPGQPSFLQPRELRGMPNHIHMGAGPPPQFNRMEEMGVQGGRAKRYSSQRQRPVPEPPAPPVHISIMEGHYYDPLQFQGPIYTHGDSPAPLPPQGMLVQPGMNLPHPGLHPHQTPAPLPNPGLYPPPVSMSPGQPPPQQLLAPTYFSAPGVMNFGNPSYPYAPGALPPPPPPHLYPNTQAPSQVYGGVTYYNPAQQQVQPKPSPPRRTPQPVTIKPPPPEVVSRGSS
Experimental: as §1, §2

[4] = biological target: T4, VIM (human, UniProt P08670 2-466); test: as above
T4 construct: Identified by mass spectrometry in the co-IP; also called NP_003371.2
T4 sequence (P08670 2-466 limits assumed): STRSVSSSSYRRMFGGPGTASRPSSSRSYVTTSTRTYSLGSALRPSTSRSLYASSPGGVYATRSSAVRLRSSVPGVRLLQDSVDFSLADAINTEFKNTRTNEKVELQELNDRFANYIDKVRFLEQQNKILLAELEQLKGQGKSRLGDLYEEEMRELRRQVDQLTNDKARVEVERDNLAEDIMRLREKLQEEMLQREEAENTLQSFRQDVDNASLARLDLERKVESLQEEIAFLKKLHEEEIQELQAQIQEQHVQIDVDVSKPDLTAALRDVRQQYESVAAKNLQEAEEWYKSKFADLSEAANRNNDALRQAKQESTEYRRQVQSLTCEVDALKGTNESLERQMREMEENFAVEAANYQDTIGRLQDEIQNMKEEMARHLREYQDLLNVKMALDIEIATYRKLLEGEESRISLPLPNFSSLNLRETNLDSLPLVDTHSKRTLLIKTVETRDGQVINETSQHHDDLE
Experimental: as §1, §2

[5] = biological target: T5, ANXA2 (human, UniProt P07355-2 1-357, limits assumed); test: as above
T5 construct: Identified by mass spectrometry in the co-IP; also called NP_001002858.1 (+1)
T5 sequence (P07355 other isoform, or with tags, fused parts or gaps limits assumed): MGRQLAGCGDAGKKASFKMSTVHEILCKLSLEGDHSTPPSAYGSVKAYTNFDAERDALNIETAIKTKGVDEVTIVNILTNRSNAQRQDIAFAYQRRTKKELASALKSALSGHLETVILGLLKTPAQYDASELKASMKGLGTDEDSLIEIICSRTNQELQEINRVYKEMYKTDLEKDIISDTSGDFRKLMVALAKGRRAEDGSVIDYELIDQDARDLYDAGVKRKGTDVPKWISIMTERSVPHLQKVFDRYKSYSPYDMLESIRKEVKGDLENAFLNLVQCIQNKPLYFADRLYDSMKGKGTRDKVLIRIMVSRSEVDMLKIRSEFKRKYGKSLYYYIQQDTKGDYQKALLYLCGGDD
Experimental: as §1, §2

[6] = biological target: T6, PABPC1 (human, UniProt P11940 1-636); test: as above
T6 construct: Identified by mass spectrometry in the co-IP; also called NP_002559.2
T6 sequence (P11940 whole entry): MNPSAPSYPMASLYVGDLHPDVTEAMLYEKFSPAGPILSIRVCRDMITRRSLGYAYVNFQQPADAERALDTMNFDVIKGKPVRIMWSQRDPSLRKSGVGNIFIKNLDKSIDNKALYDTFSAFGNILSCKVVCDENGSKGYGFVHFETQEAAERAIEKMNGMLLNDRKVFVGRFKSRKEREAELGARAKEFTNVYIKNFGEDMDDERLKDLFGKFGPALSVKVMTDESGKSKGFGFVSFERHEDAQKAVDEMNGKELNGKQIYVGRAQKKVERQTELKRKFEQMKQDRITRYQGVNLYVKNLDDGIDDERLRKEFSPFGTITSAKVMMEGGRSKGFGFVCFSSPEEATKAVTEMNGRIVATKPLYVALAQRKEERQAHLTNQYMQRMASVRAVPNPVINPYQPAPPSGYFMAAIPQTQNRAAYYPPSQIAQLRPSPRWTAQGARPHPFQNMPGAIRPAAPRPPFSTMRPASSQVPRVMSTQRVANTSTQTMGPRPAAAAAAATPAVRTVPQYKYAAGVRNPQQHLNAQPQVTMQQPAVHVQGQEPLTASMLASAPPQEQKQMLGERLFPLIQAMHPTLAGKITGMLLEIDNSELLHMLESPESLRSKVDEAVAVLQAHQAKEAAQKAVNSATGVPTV
Experimental: as §1, §2

[7] = biological target: T7, CAPRIN1 (human, UniProt Q14444 2-709); test: as above
T7 construct: Identified by mass spectrometry in the co-IP; also called NP_005889.3 (+1)
T7 sequence (looked up): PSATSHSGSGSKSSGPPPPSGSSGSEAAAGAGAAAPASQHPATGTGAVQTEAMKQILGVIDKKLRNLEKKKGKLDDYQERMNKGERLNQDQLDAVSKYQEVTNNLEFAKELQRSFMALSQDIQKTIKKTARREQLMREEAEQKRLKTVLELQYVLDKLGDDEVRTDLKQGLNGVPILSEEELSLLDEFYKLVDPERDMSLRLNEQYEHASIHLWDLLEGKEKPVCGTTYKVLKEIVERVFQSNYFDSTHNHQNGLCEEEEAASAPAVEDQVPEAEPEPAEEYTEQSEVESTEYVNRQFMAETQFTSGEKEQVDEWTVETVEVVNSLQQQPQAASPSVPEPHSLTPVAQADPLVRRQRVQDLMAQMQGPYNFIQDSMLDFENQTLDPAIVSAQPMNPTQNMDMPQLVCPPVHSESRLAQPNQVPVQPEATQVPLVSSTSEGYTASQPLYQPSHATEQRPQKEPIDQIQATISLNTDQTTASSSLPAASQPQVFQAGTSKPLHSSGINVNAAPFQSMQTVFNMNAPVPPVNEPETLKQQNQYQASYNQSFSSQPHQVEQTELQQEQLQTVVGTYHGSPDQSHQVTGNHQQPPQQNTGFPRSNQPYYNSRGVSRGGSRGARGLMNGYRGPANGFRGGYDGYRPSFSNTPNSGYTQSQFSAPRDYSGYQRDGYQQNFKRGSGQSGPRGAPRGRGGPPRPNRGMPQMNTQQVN
Experimental: as §1, §2

[8] = biological target: T8, CPSF6 (human, UniProt Q16630-2 1-588, limits assumed); test: as above
T8 construct: Identified by mass spectrometry in the co-IP; also called NP_001287876.1 (+3)
T8 sequence (looked up): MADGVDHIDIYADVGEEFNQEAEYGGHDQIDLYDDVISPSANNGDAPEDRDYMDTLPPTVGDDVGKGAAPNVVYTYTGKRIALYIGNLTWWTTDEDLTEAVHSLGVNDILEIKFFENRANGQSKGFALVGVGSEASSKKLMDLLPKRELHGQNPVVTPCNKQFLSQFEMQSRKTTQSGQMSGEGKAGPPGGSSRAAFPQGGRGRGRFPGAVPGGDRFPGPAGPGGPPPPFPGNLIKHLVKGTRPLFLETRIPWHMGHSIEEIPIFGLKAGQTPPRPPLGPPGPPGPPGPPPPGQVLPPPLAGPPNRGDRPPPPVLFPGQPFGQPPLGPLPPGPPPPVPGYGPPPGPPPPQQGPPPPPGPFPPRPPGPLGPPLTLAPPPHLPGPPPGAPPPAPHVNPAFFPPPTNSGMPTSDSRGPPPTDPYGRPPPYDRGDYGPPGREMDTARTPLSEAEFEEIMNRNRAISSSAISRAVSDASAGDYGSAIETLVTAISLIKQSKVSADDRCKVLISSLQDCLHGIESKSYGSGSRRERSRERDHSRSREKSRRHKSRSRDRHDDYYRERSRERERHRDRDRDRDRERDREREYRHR
Experimental: as §1, §2

- binding result [1]: binds
B4: CD58, endogenous in A375 melanoma cells (ligand, human, UniProt P19256 29-250, looked up)
chain: FSQQIYGVVYGNVTFHVPSNVPLKEVLWKKQKDKVAELENSEFRAFSSFKNRVYLDTVSGSLTIYNLTSSDEDEYEMESPNITDTMKFFLYVLESLPSPTLTCALTNGSIEVQCMIPEHYNSHRGLIMYSWDCPMEQCKRNSTSIYFKMENDLPQKIQCTLSNPLFNTTSSIILTTCIPSSGHSRHRYALIPIPLAVITTCIVLYMNGILKCDRKPDRTNSN
modifications: poly-LacNAc glycosylation added by B3GNT2 (sites not given)
notes: whole, on cells; On fixed A375 cells in flow cytometry; In the co-IP it comes from the lysate of these cells

- binding result [1]: binds
B5: CD70, endogenous in A375 melanoma cells (ligand, human, UniProt P32970 1-193, looked up)
chain: MPEEGSGCSVRRRPYGCVLRAALVPLVAGLVICLVVCIQRFAQAQQQLPLESLGWDVAELQLNHTGPQQDPRLYWQGGPALGRSFLHGPELDKGQLRIHRDGIYMVHIQVTLAICSSTTASRHHPTTLAVGICSPASRSISLLRLSFHQGCTIASQRLTPLARGDTLCTNLTGTLLPSRNTDETFFGVQWVRP
modifications: poly-LacNAc glycosylation added by B3GNT2 (sites not given)
notes: whole, on cells; In the co-IP it comes from the lysate of A375 cells

Further lines, the binder ahead of its results:

B1: MICB, endogenous in A375 melanoma cells (ligand, human, UniProt Q29980 23-383, looked up)
chain: AEPHSLRYNLMVLSQDGSVQSGFLAEGHLDGQPFLRYDRQKRRAKPQGQWAENVLGAKTWDTETEDLTENGQDLRRTLTHIKDQKGGLHSLQEIRVCEIHEDSSTRGSRHFYYDGELFLSQNLETQESTVPQSSRAQTLAMNVTNFWKEDAMKTKTHYRAMQADCLQKLQRYLKSGVAIRRTVPPMVNVTCSEVSEGNITVTCRASSFYPRNITLTWRQDGVSLSHNTQQWGDVLPDGNGTYQTWVATRIRQGEEQRFTCYMEHSGNHGTHPVPSGKALVLQSQRTDFPYVSAAMPCFVIIIILCVPCCKKKTSAAEGPELVSLQVLDQHPVGTGDHRDAAQLGFQPLMSATGSTGSTEGT
modifications: poly-LacNAc glycosylation added by B3GNT2 (sites not given)
notes: as for B4
- binding result [1]: binds

B2: IFNGR2, endogenous in A375 melanoma cells (receptor, human, UniProt P38484 22-337, looked up)
chain: APPDPLSQLPAPQHPKIRLYNAEQVLSWEPVALSNSTRPVVYQVQFKYTDSKWFTADIMSIGVNCTQITATECDFTAASPSAGFPMDFNVTLRLRAELGALHSAWVTMPWFQHYRNVTVGPPENIEVTPGEGSLIIRFSSPFDIADTSTAFFCYYVHYWEKGGIQQVKGPFRSNSISLDNLKPSRVYCLQVQAQLLWNKSNIFRVGHLSNISCYETMADASTELQQVILISVGTFSLLSVLAGACFFLVLKYRGLIKYWFHTPPSIPLQIEEYLKDPTQPILEALDKDSSPKDDVWDSVSIISFPEKEQEDVLQTL
modifications: poly-LacNAc glycosylation added by B3GNT2 (sites not given)
notes: as for B5
- binding result [1]: binds

B3: FAS, endogenous in A375 melanoma cells (receptor, human, UniProt P25445 26-335, looked up)
chain: QVTDINSKGLELRKTVTTVETQNLEGLHHDGQFCHKPCPPGERKARDCTVNGDEPDCVPCQEGKEYTDKAHFSSKCRRCRLCDEGHGLEVEINCTRTQNTKCRCKPNFFCNSTVCEHCDPCTKCEHGIIKECTLTSNTKCKEEGSRSNLGWLCLLLLPIPLIVWVKRKEVQKTCRKHRKENQGSHESPTLNPETVAINLSDVDLSKYITTIAGVMTLSQVKGFVRKNGVNEAKIDEIKNDNVQDTAEQKVQLLRNWHQLHGKKEAYDTLIKDLKKANLCTLAEKIQTIILKDITSDSENSNFRNEIQSLV
modifications: poly-LacNAc glycosylation added by B3GNT2 (sites not given)
notes: whole, on cells; In the co-IP it comes from the lysate of A375 cells; also called Fas receptor
- binding result [1]: binds

B6: C-terminal FLAG tagged B3GNT2 (enzyme, human, UniProt Q9NY97 1-397, looked up)
chain: T1 sequence (looked up)
notes: FLAG-tagged ORF overexpressed in A375 cells; bait of the co-IP with mouse anti-FLAG; also called C-FLAG B3GNT2; C-term flag; not shown: C-terminal FLAG tag
- co-IP mass spectrometry count (C-term flag) [2]: 9
- co-IP mass spectrometry count (C-term flag) [3]: 0
- co-IP mass spectrometry count (C-term flag) [4]: 411
- co-IP mass spectrometry count (C-term flag) [5]: 15
- co-IP mass spectrometry count (C-term flag) [6]: 41
- co-IP mass spectrometry count (C-term flag) [7]: 6
- co-IP mass spectrometry count (C-term flag) [8]: 35
